Data reported in patent publication US12072338B2, “Pharmaceutical peptides for the treatment of inflammatory diseases” (PROTAGONISTS LTD., priority 2007, dated 2024).
Where “and” joins values, the source holds several entries; their conditions need not be identical. Equal values may be shown once.

Key:
BCA-1 = target: T1, BCA-1 (Homo sapiens, UniProt O43927); experiment: Micro-array analysis of chemokine binding peptides: BCA-1
T1 construct: purchased 300-47
T1 sequence (O43927 23-109): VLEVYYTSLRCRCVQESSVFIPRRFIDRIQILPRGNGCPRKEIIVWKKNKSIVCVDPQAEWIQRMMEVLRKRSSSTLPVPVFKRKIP
Description: (§1) (1) Printing: Chemokine (CK) solution (in water) was serially diluted with Print Reagent (GenTel BioSurfaces USA) to final concentrations of 50 μg and 25 μg/ml. BSA/BSA-Biotin control solutions (in water) were diluted with Print Reagent to 100 μg/ml. Amplified stock of M13 phage control (M13KEgIII Cloning Vector, New England Biolabs, Cat.No.E8101S) was stored in Tris Buffered Saline (TBS; pH7.5, 4° C.) and diluted with Print Reagent to the working titre (10^8 pfu/μl). An automated spotting robot (16 pin print tool, 0.4 mm head; BioRobotics, UK) was used to print the CK/BSA control/M13 control, 5 repeats per sample (CK 25 μg/ml and 50 μg/ml; BSA 100 μg/ml; M13 20 μl), on PATH Protein Microarray Slides (GenTel, Prod.No. 2-1005/-1025) at […], and 50-70% relative humidity. Printed micro-array slides were stored at Room Temperature (RT) or 4° C. for at least 24 h before use.
(§2) (2) Blocking: Block Buffer (500 μl/partition; PATHblock, GenTel, Prod.No. 2-1014) was applied to the slide for 1 hour at room temp (RT). After removal of Block Buffer, the slide was air dried for 25 minutes;
(§3) (3) Phage Presented Peptide Binding: Amplified recombinant phage stock was stored in TBS and diluted with Wash Buffer to working titer (10^7 pfu/μl). Recombinant phage suspension (300 μl) was applied per partition and incubated at RT for 1 hour with gentle agitation.
(§4) (4) First Washing: The slides were washed twice with Wash Buffer 300 μl/partition).
(§5) (5) Primary Antibody (Ab) Labeling: The slides were incubated with the Primary Ab (1 mg/ml diluted ×2500 (Wash Reagent), 300 μl; Mouse Anti-M13 monoclonal Ab; Amersham Biosciences, UK; Product Code 27-9420-01) for 45 minutes at RT.
(§6) (6) Second Washing: The slides were washed twice with Wash Buffer (300 μl/partition).
(§7) (7) Secondary Ab Labeling: The slides were incubated with Secondary Ab (1.5 mg/ml diluted ×5000 (Wash Reagent), 300 μl; Cy3-conjugated AffiniPure Goat Anti-Mouse IgG; Jackson ImmunoReserch Labs, USA; Product Code 115-165-062).
(§8) (8) Third Washing: The slides were washed twice with Wash Buffer (300 μl/partition).
(§9) (9) Rinse: the slides were rinsed twice with Rinse Buffer (PATHrinse, GenTel, Prod.No. 2-1018) then dried well.
(§10) (10) Scanning: The peptide-bound, labeled slide was scanned (Laser Intensity 80%, Gain 80%, Resolution 10 μm) with a ScanArray Life Scanner (Packard BioChip Technologies, USA).
(§11) (11) Analysis: Quantitative analysis of micro-array was performed by the SpotReader program of Niles Scientific (USA) and presented as Relative Fluorescence (RF) as a function of CK concentration. Micro-array readout (Cy3 fluorescence) was quantified to determine the relative binding affinities of a CBP for the CKs and by inference, the specificity of the CBP for binding to a CK.

RANTES = target: T2, RANTES (Homo sapiens, UniProt P13501); experiment: Micro-array analysis of chemokine binding peptides: RANTES; settings: limit = start of the upper 75% of that peptide's response range
T2 construct: purchased 300-06
T2 sequence (P13501 24-91): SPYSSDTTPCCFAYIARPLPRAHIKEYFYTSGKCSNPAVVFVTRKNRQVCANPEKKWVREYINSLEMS
Description: as §1, §2, §3, §4, §5, §6, §7, §8, §9, §10, §11

IL-8 = experiment: Micro-array analysis of chemokine binding peptides: IL-8; settings: limit = start of the upper 75% of that peptide's response range
Description: as §1, §2, §3, §4, §5, §6, §7, §8, §9, §10, §11

SDF1-β = target: T3, SDF1-β (Homo sapiens, UniProt P48061); experiment: Micro-array analysis of chemokine binding peptides: SDF1-β
T3 construct: purchased 300-28b
Description: as §1, §2, §3, §4, §5, §6, §7, §8, §9, §10, §11

TECK = target: T4, TECK (Homo sapiens, UniProt O15444); experiment: Micro-array analysis of chemokine binding peptides: TECK
T4 construct: purchased 300-45
T4 sequence (O15444 24-150): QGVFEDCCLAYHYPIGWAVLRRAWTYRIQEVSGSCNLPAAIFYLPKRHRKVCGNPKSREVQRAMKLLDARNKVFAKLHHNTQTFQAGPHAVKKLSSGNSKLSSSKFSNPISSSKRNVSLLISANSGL
Description: as §1, §2, §3, §4, §5, §6, §7, §8, §9, §10, §11

Eotaxin 3 = target: T5, Eotaxin 3 (Homo sapiens, UniProt Q9Y258); experiment: Micro-array analysis of chemokine binding peptides: Eotaxin 3; settings: limit = start of the upper 75% of that peptide's response range
T5 construct: purchased 300-48
T5 sequence (Q9Y258 24-94): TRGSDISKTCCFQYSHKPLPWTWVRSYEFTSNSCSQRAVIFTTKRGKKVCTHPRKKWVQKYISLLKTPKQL
Description: as §1, §2, §3, §4, §5, §6, §7, §8, §9, §10, §11

Mig = target: T6, Mig (Homo sapiens, UniProt Q07325); experiment: Micro-array analysis of chemokine binding peptides: Mig; settings: limit = start of the upper 75% of that peptide's response range
T6 construct: purchased 300-26
T6 sequence (Q07325 23-125): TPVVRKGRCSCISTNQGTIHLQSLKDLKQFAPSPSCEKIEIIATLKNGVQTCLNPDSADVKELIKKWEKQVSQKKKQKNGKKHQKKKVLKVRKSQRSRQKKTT
Description: as §1, §2, §3, §4, §5, §6, §7, §8, §9, §10, §11

Lymphotactin = target: T7, Lymphotactin (Homo sapiens, UniProt P47992); experiment: Micro-array analysis of chemokine binding peptides: Lymphotactin
T7 construct: purchased 300-20
T7 sequence (P47992 22-114): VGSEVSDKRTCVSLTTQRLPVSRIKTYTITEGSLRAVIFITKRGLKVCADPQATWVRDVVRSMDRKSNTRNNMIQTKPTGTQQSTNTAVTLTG
Description: as §1, §2, §3, §4, §5, §6, §7, §8, §9, §10, §11

MCP-2 = target: T8, MCP-2 (Homo sapiens, UniProt P80075); experiment: Micro-array analysis of chemokine binding peptides: MCP-2; settings: limit = start of the upper 75% of that peptide's response range
T8 construct: purchased 300-15
T8 sequence (P80075 24-99): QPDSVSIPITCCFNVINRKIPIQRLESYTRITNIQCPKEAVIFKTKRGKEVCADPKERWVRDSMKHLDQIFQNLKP
Description: as §1, §2, §3, §4, §5, §6, §7, §8, §9, §10, §11

Fractalkine = target: T9, Fractalkine (Homo sapiens, UniProt P78423); experiment: Micro-array analysis of chemokine binding peptides: Fractalkine
T9 construct: purchased 300-31
T9 sequence (P78423 25-100 limits assumed): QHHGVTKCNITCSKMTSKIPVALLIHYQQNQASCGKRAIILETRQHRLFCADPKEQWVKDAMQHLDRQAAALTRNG
Description: as §1, §2, §3, §4, §5, §6, §7, §8, §9, §10, §11

Exodus-2 = target: T10, Exodus-2 (Homo sapiens, UniProt O00585); experiment: Micro-array analysis of chemokine binding peptides: Exodus-2
T10 construct: purchased 300-35
T10 sequence (O00585 24-134): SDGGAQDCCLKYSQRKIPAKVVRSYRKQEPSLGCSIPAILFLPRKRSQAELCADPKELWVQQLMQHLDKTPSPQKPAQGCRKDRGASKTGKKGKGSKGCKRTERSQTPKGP
Description: as §1, §2, §3, §4, §5, §6, §7, §8, §9, §10, §11

IP-10 = target: T11, IP-10 (Homo sapiens, UniProt P02778); experiment: Micro-array analysis of chemokine binding peptides: IP-10; settings: limit = start of the upper 75% of that peptide's response range
T11 construct: purchased 300-12
T11 sequence (P02778 22-98): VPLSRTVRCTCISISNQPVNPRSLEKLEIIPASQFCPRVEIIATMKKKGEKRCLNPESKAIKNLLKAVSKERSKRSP
Description: as §1, §2, §3, §4, §5, §6, §7, §8, §9, §10, §11

MCP-4 = target: T12, MCP-4 (Homo sapiens, UniProt Q99616); experiment: Micro-array analysis of chemokine binding peptides: MCP-4; settings: limit = start of the upper 75% of that peptide's response range
T12 construct: purchased 300-24
Description: as §1, §2, §3, §4, §5, §6, §7, §8, §9, §10, §11

[1] = tested on: Adjuvant-Induced Arthritis (AIA) rats; experiment: Adjuvant Induced Arthritis (AIA) rat model, Clinical Score; format: in vivo
Description: Peptides were tested in a rat model of AIA for their anti-inflammatory effects.
Disease Induction: AIA was induced in female Lewis rats aged 7-8 weeks by injection of heat-killed Mycobacerioum tuberculosis (Mt strain H37Ra, Difco Laboratories, USA) dispersed in incomplete Freund's adjuvant to a final concentration of 10 mg/ml (100 μl) at the base of the tail on day 0.
Measurement: Clinical Score (CS, 0-4) for each limb based on (a) joint inflammation, (b) redness, (c) deformity.
Efficacy Protocol 1 (5 rats per group). Peptide/control compound was injected intra-peritoneally (IP, 200 μl) on days 7-11 and 14-18.
Rats were sacrificed (CO2 inhalation) on day 43.
Efficacy Protocol 2 (8 rats per group). Group 1: peptide/PBS was injected intra-peritoneally (IP, 200 μl) on days 7-18; Group 2: PBS was injected IP on days 7-18; Group 3: Dexamethasone (Dexa) was injected IP on days 11 (Clinical Score (CS)1) and 13. Rats were sacrificed on day 43.
Combination Efficacy Protocol 1 (8 rats per group). Group 1: peptide injected IP on days 7-18; Group 2: PBS injected IP on days 7-18; Group 3: Dexa injected IP on day 11 (CS 1) and day 13; Group 4: Dexa injected IP on days 11 and 13 then peptide injected on days 14-22; Group 5: Dexa injected IP on days 11 and 13 then PBS injected on days 14-22.
(§12) Combination Efficacy Protocol 2 (8 rats per group). Group 1: peptide injected IP on days 7-18; Group 2: PBS injected IP on days 7-18; Group 3: Dexa injected IP on day 11 (CS 1) and day 13 then PBS on days 14-22; Group 4: PBS injected IP on days 7-10,12,14; Dexa injected on days 11, 13. Peptide injected on days 15-19.
as §12, with “Protocol 3” for “Protocol 2”, “4: peptide” for “4: PBS”
Control Reagents for Adjuvant Induced Arthritis: Anti-Inflammatory Control: Dexamethasone Sodium Phosphate (Dexacort Forte, Teva) was dissolved in Phosphate Buffer Saline (PBS, GIBCO) to a final concentration of 1 mg/ml and injected in 200 μl (200 μg).
Negative Control: Phosphate Buffer Saline (PBS).

[2] = Dexa 200 μg IP on days 11 and 13
[3] = limit = start of the upper 75% of that peptide's response range

T3 sequence (P48061 22-93): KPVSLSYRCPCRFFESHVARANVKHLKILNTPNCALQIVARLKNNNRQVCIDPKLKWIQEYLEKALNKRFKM
T12 sequence (Q99616 17-98): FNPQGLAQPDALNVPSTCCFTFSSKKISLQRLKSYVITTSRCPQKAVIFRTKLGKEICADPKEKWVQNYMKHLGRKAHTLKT
IL-8, sequence (P10145 28-99 limits assumed): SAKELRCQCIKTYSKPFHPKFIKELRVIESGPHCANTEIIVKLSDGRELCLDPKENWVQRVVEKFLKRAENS

Substance	binding to BCA-1, stated in words (BCA-1)	binding to RANTES with relatively high affinity (Relative Fluorescence Units) (RANTES)	binding to IL-8 with relatively high affinity (Relative Fluorescence Units) (IL-8)	binding to SDF1-β, stated in words (SDF1-β)	binding to TECK, stated in words (TECK)	binding to Eotaxin 3 with relatively high affinity (Relative Fluorescence Units) (Eotaxin 3)	binding to Mig with relatively high affinity (Relative Fluorescence Units) (Mig)	binding to Lymphotactin, stated in words (Lymphotactin)	binding to MCP-2 with relatively high affinity (Relative Fluorescence Units) (MCP-2)	binding to Fractalkine, stated in words (Fractalkine)	binding to Exodus-2, stated in words (Exodus-2)	binding to IP-10 with relatively high affinity (Relative Fluorescence Units) (IP-10)	binding to MCP-4 with relatively high affinity (Relative Fluorescence Units) (MCP-4)	day by which inflammation approached / was comparable with the disease, untreated group [1, 2]	day from which inflammation increased (onset of inflammation) [1, 2]	day until which inflammation was at the base line ([1]; Dexa IP on days 7-11 and 14-18, afterwards rose almost to the untreated, disease group)	binding to BCA-1 with relatively high affinity (Relative Fluorescence Units) (BCA-1; [3])	binding to TECK with relatively high affinity (Relative Fluorescence Units) (TECK; [3])	binding to Lymphotactin with relatively high affinity (Relative Fluorescence Units) (Lymphotactin; [3])
DYD [Ph-p33]	bound	> 15,000 RFU	> 15,000 RFU	bound	bound	> 15,000 RFU	> 15,000 RFU	bound	> 15,000 RFU	bound	bound	> 15,000 RFU	> 15,000 RFU						
Dexamethasone Sodium Phosphate [reference compound]														21 days and 28 days	15 days and 14 days	24 days			
GNAMCK (listed as Homo sapiens) [Ph-p8.1]						> 15,000 RFU											> 15,000 RFU	> 15,000 RFU	> 15,000 RFU
